Results reported in PMC7337054, “Structural basis for differentiation between two classes of thiolase: Degradative vs biosynthetic thiolase” (Journal of Structural Biology: X, 2020).

Substrate: CC(=O)CC(=O)SCCNC(=O)CCNC(=O)[C@H](O)C(C)(C)COP(=O)(O)OP(=O)(O)OC[C@H]1O[C@@H](n2cnc3c(N)ncnc32)[C@H](O)[C@@H]1OP(=O)(O)O
Assay: purified protein
Format: biochemical, Pseudomonas putida
Settings: thiolytic cleavage, 70 μM CoASH, 25 mM MgCl2, 0.1 M Tris-HCl pH 8.3, 37 °C

B1: PcaF (β-ketoadipyl-CoA thiolase) (Pseudomonas putida KT2440) (protein)
chain: MHDVFICDAIRTPIGRFGGALASVRADDLAAVPLKALIERNPGVQWDQVDEVFFGCANQAGEDNRNVARMALLLAGLPESIPGVTLNRLCASGMDAVGTAFRAIASGEMELVIAGGVESMSRAPFVMGKAESAYSRNMKLEDTTIGWRFINPLMKSQYGVDSMPETADNVADDYQVSRADQDAFALRSQQKAAAAQAAGFFAEEIVPVRIAHKKGEIIVERDEHLRPETTLEALTKLKPVNGPDKTVTAGNASGVNDGAAAMILASAAAVKKHGLTPRARVLGMASGGVAPRVMGIGPVPAVRKLTERLGIAVSDFDVIELNEAFASQGLAVLRELGVADDAPQVNPNGGAIALGHPLGMSGARLVLTALHQLEKSGGRKGLATMCVGVGQGLALAIERV
notes: full length, 400 residues plus 22 vector residues; N-terminal His-tag with TEV site, pSGC-His, E. coli BL21(DE3) pLysS; tetramer
- Km: 67.8 ± 8.2 µM
- kcat: 0.7 ± 0.08 S^−1
